B1: Kinesin-like protein KIF16B, residues 1213 to 1273; numbered along this chain, Q96L93 (parent)
chain: ETWTVFRRYSRFREMHKTLKLKYAELAALEFPPKKLFGNKDERVIAERRSHLEKYLRDFFS

Variants of: B1
Test: abundance fitness (aPCA) (normalised: wild type 0, dead -1); higher = more abundant; growth selection in yeast, the domain comes from the species named
Details: Homo sapiens

Abundance fitness of substitutions, site by site:
F12: C -0.164 | V 0.047 | W 0.017 | M -0.103 | S -0.642 | Y -0.469 | T -0.907 | I 0.068 | A -0.271 | R -0.921 | E -0.941 | K -1.08 | G -0.597
S10: V -0.167 | Q -0.419 | D -0.224 | I -0.229 | R -0.395 | H -1.1 | Y -0.567 | K -0.317 | W -0.018 | F 0.099 | E -0.758 | C 0.208 | A -0.095 | L -0.007 | P 0.135 | T 0.136
M15: T -0.455 | W 0.229 | A -0.044 | F -0.095 | L 0.265 | P -0.993 | E -1.09 | V 0.215 | R -1.09 | G -0.736 | Q -1.09 | S -0.908
F6: R -0.601 | M -0.443 | A -0.241 | Y -0.69 | D -0.474 | T -0.352 | C -0.842 | L -0.242 | E -0.161 | H -0.541 | V -0.107 | S -0.215 | I -0.044 | Q -0.402 | N -0.451 | P -0.227 | K -0.442 | G -0.168
H16: I 0.452 | D -0.835 | E -0.842 | N -0.353 | M 0.311 | K 0.062 | A 0.135 | L 0.379 | C 0.016 | F -0.044
V5: R -0.041 | S -0.023 | T 0.094 | W 0.086
E14: G -0.183 | C -0.319 | V -0.299 | F -0.433 | N -0.556 | T -0.597 | P -0.589 | A -0.318 | D -0.159 | Q -0.534 | L -0.429 | I -0.867 | W -0.69 | S -0.229 | M -0.41 | H 0.13
R7: L -0.025 | T -0.02 | V -0.042 | M -0.04 | C 0.084 | Q 0.164 | F 0.078 | P -0.161 | N -0.131 | K 0.227 | S 0.141 | A 0.022 | G 0.186 | H 0.225
R11: L -0.059 | G -0.03 | S 0.09 | E -0.487 | N -0.122 | V 0.246 | T -0.096 | H -0.112 | P -0.133 | C 0.166 | W 0.205 | A 0.206 | Y -0.154 | M 0.423 | D -0.231
R13: Y -0.079 | G 0.023 | L -0.108 | A 0.096 | T -0.056 | N -0.265 | D 0.391 | K 0.1 | M -0.153 | S -0.137 | V -0.443 | E -0.354 | C -0.333 | Q -0.398 | W -0.213
Y9: P 0.129 | E -0.858 | A -0.119 | T -0.201 | L 0.063 | S 0.055 | W 0.076 | C 0.123 | Q -0.446 | G 0.245 | M 0.163 | K -0.056 | I 0.156 | R -0.27 | N 0.091 | V 0.019
R8: M 0.284 | L 0.317 | G 0.097 | K 0.295 | H -0.198 | Y 0.048 | Q 0.057 | W 0.02 | S 0.12 | A 0.334 | D -0.271 | N -0.31 | E -0.494 | T 0.005 | P -0.092 | I 0.37 | V 0.26 | C 0.282
